This note sets out measurements from US20180193457A1 (University of Washington, published 2018).

Assay [1] has as its target T1, wild-type FimH adhesin variant of the uropathogenic E. coli strain J96 (FimH^wt) (uropathogenic E. coli strain J96, UniProt P08191 22-300). Nature of the assay: cell-based or functional assay.
In assay [2] the target is T1, wild-type FimH adhesin variant of the …. Put plainly: SPR2 (Analytical Biopharmacy Core), FimH^wt fimbriae on CM5 chip, mAb as analyte, 1:1 Langmuir model.

B1: mAb926 (antibody, V domains shown)
VH: QVQLQQSGAELATPGASVKMSCKASGYTSTNYWIHWVKQRPGQGLEWIGYINPTSGYTEYNQNFKDKATLTADKSSSTAYMQLTSLTSEDSAVYYCARGVIRDFWGQGTTLTVSS
VL: DVLMTQTPLSLPVSLGDQASISCRSSQNIVHNNGNTYLEWYLQSPGQSPKLLIYKVSNRFSGVPDRFSGSGSGTDFTLKISRVEAEDLGVYYCFQGSHVPFTFGSGTKLEIK
notes: also called mA926; mAb296
In general, Kd refers to the equilibrium constant for the complex coming apart. Turning to B1, in assay [1], the “half-maximal inhibitory concentration (IC50) of bacterial adhesion to mannosylated (yeast mannan) surfaces” value amounted to 0.4 nM. The same molecule registered a dissociation constant Kd in assay [2] of 0.22 nM.
